From publication PMC10397247
Blank lines part the entries; values can stand above or below the binder they belong to.

Key:
Test in all cases: two-hybrid library CCNG1;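 note: natural log of median RNA to DNA barcode read ratio; higher means stronger binding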
[1] = biological target: T1, 4H2697-bH
T1 chain: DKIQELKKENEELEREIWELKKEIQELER

[2] = biological target: T2, 4H4001-bH
T2 chain: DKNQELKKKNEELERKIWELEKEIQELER

[3] = biological target: T3, 4H3843-bH
T3 chain: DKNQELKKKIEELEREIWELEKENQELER

[4] = biological target: T4, 4H1446-bH
T4 chain: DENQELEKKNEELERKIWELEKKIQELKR

[5] = biological target: T5, 4H2610-bH
T5 chain: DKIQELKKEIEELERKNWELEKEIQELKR

[6] = biological target: T6, 4H1845-bH
T6 chain: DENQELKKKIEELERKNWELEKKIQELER

[7] = biological target: T7, 4H3606-bH
T7 chain: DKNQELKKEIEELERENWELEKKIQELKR

[8] = biological target: T8, 4H2667-bH
T8 chain: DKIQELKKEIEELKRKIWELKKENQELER

[9] = biological target: T9, 4H883-bH
T9 chain: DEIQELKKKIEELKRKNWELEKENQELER

[10] = biological target: T10, 4H918-bH
T10 chain: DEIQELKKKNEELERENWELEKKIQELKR

[11] = biological target: T11, 4H953-bH
T11 chain: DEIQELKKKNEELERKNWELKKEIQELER

[12] = biological target: T12, O9-bN
T12 chain: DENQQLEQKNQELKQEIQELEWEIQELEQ

[13] = biological target: T13, 4H462-bH
T13 chain: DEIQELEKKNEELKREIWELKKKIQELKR

[14] = biological target: T14, 4H3782-bH
T14 chain: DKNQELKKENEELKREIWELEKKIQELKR

[15] = biological target: T15, 4H568-bH
T15 chain: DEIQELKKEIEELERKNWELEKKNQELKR

[16] = biological target: T16, 4H607-bH
T16 chain: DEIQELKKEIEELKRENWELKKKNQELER

[17] = biological target: T17, 4H2576-bH
T17 chain: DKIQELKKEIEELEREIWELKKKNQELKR

[18] = biological target: T18, 4H687-bH
T18 chain: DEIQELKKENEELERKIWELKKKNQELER

[19] = biological target: T19, 4H72-bH
T19 chain: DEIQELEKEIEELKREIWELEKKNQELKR

[20] = biological target: T20, 4H331-bH
T20 chain: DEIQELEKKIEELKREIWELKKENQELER

[21] = biological target: T21, 4H797-bH
T21 chain: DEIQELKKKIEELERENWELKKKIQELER

[22] = biological target: T22, 4H967-bH
T22 chain: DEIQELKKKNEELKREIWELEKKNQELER

[23] = biological target: T23, 4H1369-bH
T23 chain: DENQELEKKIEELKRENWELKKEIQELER

[24] = biological target: T24, 4H3189-bH
T24 chain: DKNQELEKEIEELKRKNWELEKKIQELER

[25] = biological target: T25, 4H370-bH
T25 chain: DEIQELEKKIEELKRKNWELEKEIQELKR

[26] = biological target: T26, P7A-bN
T26 chain: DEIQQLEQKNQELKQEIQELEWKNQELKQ

[27] = biological target: T27, P9A-bN
T27 chain: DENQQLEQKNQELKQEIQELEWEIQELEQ

[28] = biological target: T28, P3A-bN
T28 chain: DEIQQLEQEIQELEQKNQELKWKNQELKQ

[29] = biological target: T29, P1A-bN
T29 chain: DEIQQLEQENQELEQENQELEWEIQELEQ

[30] = biological target: T30, P2A-bN
T30 chain: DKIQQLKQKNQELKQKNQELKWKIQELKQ

[31] = biological target: T31, P8A-bN
T31 chain: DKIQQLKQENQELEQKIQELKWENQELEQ

[32] = biological target: T32, P11A-bN
T32 chain: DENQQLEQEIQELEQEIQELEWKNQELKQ

[33] = biological target: T33, P6A-bN
T33 chain: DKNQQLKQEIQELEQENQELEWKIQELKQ

[34] = biological target: T34, P12A-bN
T34 chain: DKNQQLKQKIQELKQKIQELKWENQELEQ

[35] = biological target: T35, P4A-bN
T35 chain: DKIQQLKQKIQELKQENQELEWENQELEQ

[36] = biological target: T36, P5A-bN
T36 chain: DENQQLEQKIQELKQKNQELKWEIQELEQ

[37] = biological target: T37, P12A-bH
T37 chain: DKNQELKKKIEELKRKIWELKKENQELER

[38] = biological target: T38, P8A-bH
T38 chain: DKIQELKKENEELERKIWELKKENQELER

[39] = biological target: T39, P9A-bH
T39 chain: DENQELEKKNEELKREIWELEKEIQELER

[40] = biological target: T40, P1A-bH
T40 chain: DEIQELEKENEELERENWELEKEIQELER

[41] = biological target: T41, P6A-bH
T41 chain: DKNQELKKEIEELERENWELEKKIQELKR

[42] = biological target: T42, P4A-bH
T42 chain: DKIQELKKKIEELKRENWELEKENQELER

[43] = biological target: T43, P3A-bH
T43 chain: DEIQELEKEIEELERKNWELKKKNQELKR

[44] = biological target: T44, P5A-bH
T44 chain: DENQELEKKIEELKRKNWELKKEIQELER

[45] = biological target: T45, P2A-bH
T45 chain: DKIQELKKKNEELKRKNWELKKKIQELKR

[46] = biological target: T46, P7A-bH
T46 chain: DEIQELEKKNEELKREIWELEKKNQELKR

[47] = biological target: T47, 4H918-bA
T47 chain: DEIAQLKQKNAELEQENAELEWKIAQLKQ

[48] = biological target: T48, 4H967-bA
T48 chain: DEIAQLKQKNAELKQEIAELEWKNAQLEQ

[49] = biological target: T49, 4H953-bA
T49 chain: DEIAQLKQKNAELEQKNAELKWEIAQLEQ

[50] = biological target: T50, 4H908-bA
T50 chain: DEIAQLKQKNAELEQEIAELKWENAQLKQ

Binder: DENQELEKKIEELKRENWELKKEIQELER [4H1369-bH]
interaction score [1]: -0.653
interaction score [2]: -0.331
interaction score [3]: -0.198
interaction score [4]: -1.19
interaction score [5]: 0.178
interaction score [6]: -0.792
interaction score [7]: 1.14
interaction score [8]: -0.433
interaction score [9]: -0.565
interaction score [10]: -1.26
interaction score [11]: -0.636
interaction score [12]: -3.43
interaction score [13]: -1.88
interaction score [14]: -0.489
interaction score [15]: -1.94
interaction score [16]: -0.13
interaction score [17]: -0.848
interaction score [18]: 0.994
interaction score [19]: -1.58
interaction score [20]: -0.491
interaction score [21]: -0.464
interaction score [22]: -0.723
interaction score [23]: -0.455
interaction score [24]: -0.572
interaction score [25]: -1.73

Binder: DEIAQLKQKNAELEQEIAELKWENAQLKQ [4H908-bA]
interaction score [47]: 0.429
interaction score [48]: -0.532
interaction score [32]: 1.22
interaction score [49]: -0.801
interaction score [50]: 0.539

Continued, values first:

interaction score [26]: -0.868
interaction score [27]: 0.422
interaction score [28]: 0.143
interaction score [29]: -0.501
interaction score [30]: 0.436
interaction score [31]: 0.54
interaction score [32]: 0.856
interaction score [33]: -0.465
interaction score [34]: 0.458
interaction score [35]: 1.12
interaction score [36]: -1.3
Binder: DENQQLEQEIQELEQEIQELEWKNQELKQ [P11A-bN]

interaction score [37]: -0.588
interaction score [38]: 0.274
interaction score [39]: 0.667
interaction score [40]: 0.256
interaction score [41]: 0.389
interaction score [42]: -0.357
interaction score [43]: 1.64
interaction score [44]: -2.21
interaction score [45]: -1.23
interaction score [46]: -0.514
Binder: DKNQELKKKIEELKRKIWELKKENQELER [P12A-bH]

interaction score [26]: 0.528
interaction score [28]: -2.58
interaction score [29]: -0.0109
interaction score [30]: -1.29
interaction score [31]: -1.93
interaction score [32]: 0.197
interaction score [33]: -0.522
interaction score [34]: -0.334
interaction score [35]: 0
interaction score [36]: -0.55
Binder: DKNQQLKQENQELEQKIQELKWKIQELKQ [P10A-bN]
